# Results as given in patent US5670316.
# Molecular target: RecA (UniProt P0A7G6)
# Assay: pulldown
# Sequence of RecA (P0A7G6 2-353): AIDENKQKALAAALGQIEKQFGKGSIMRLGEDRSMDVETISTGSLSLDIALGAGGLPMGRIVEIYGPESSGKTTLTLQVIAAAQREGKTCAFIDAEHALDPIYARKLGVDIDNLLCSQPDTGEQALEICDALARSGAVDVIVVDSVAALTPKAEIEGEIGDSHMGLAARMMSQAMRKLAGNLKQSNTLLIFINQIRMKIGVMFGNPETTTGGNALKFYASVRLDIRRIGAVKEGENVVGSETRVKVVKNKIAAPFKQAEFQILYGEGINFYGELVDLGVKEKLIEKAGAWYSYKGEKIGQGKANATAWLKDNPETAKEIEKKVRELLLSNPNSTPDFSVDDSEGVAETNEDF
Substance,"activity (bio-14-dATP incorporated, capture of 32P lambda DNA target, 3.7% without RecA, ATPgammaS, Mg acetate)","activity (capture of 32P lambda target with heterologous non-biotinylated probe, 3.1% without RecA (background))"
lambda 1000-mer (6631-7630) nick-translated probe,45.9%,–
phiX174 RFI nick-translated probe,–,3.6%
